# Measurements as given in US20220228164A1, “ENGINEERED ANTIGEN PRESENTING CELLS” (Neogene Therapeutics B.V., priority 2021, published 2022).
# Key:
# [1] = tested on: NY-ESO 1G4 TCR transduced Jurkat cells; assay: TMG-expressing BCL-6/BCL-xL B cells with or without CD40L, co-culture with TCR Jurkat cells, CD69 (Example 7); format: cell-based, human; conditions: BCL-6/BCL-xL immortalized B cells, two donors, 20 hours
# Method: (§1) B cells from two healthy donors are isolated and immortalized by transduction with BCL-6/BCL-xL as described in Example 5 and 10 of this invention. In this Example, B cells are either transduced with BCL-6/BCL-xL alone or in combination with a CD40L transgene. After immortalization B cells are transduced with different TMG constructs encoding different numbers of 25mer polypeptides (1, 3, 12 or 40) and including LAMP1 signaling and transmembrane sequences. 96 hours post-transductions TMG-expressing B cells are enriched by antibiotic resistance selection as described in Examples 5 and 10. […]
# (§2) TCR expressing Jurkat T cells specific for two NY-ESO-1 derived T cell epitopes (5B8 epitope SLLMWITQCFLPVF; SEQ ID NO: 3; MHC-class II restricted T cell epitope and 1G4 epitope SLLMWITQC; SEQ ID NO: 4; MHC-class I restricted T cell epitope) are generated as described in Examples 5 and 10. […] After co-culture, CD69 expression by TCR transduced Jurkat T cells is measured by flow cytometry.
# (§3) FIG. 11A is Donor 1: NY-ESO 1G4 TCR transduced T cell reactivity towards TMG transduced BCL-6/BCL-XL immortalized B cells with or without CD40L. […] NY-ESO 1G4 TCR transduced Jurkat cells directed against one of the epitopes presented on Class I were then co-cultured with the B cells and reactivity was assessed by flowcytometry focusing on upregulation of CD69 on T cells. […]
# [2] = tested on: NY-ESO 5B8 TCR transduced Jurkat cells; assay: as above; format: cell-based, human; conditions: BCL-6/BCL-xL immortalized B cells, two donors, 20 hours
# Method: as §1, §2, §3
molecule,measurement,setting,value
CD40L transgene: hCD40L transgene expressed in BCL-6/BCL-xL immortalized B cells (protein) DNA: MIETYNQTSPRSAATGLPISMKIFMYLLTVFLITQMIGSALFAVYLHRRLDKIEDERNLHEDFVFMKTIQRCNTGERSLSLLNCEEIKSQFEGFVKDIMLNKEETKKENSFEMQKGDQNPQIAAHVISEASSKTTSVLQWAEKGYYTMSNNLVTLENGKQLTVKRQGLYYIYAQVTFCSNREASSQAPFIASLCLKSPGRFERILLRAANTHSSAKPCGQQSIHLGGVFELQPGASVFVNVTDPSQVSHGTGFTSFGLLKL,MHC-class I antigen-presentation (CD69 expression by TCR transduced Jurkat T cells),[1],can increase
same,MHC-class II antigen presentation (CD69 expression by TCR transduced Jurkat T cells),[2],can increase
